Test results as given in the DeepSol protein solubility set.

Experiment: soluble on expression in E. coli; label from the status in PepcDB or PDB records

Sequence	soluble on expression in E. coli
MSLSTSSKVVRLDVSRSQQEAVKGVKLPALLIKLRDRCGEHNRKLLDRLFEQVDDSFFDLADKSATNSEQALFFDAMREIRLKKERIAALFMQYYNRDFQFLEVQKPGMLKANFDPQNLTLVQEDKLEEQVAIDNMVNRFKSEIGRDLEHLTIRLDSLLFDVSVEEENNPLGPLRMVTNFVTACAELELGIRAKLVFFKLFEKHVLTQNKAVLEAANKFLAEQGVMPDLSASRSVRRTGVNLPHASGSVIDQNTGAVGDYNEGGWDPQIDPLQYMRQFSDAQMAGAAGAAVNLPVVQQTALLNLLSRLQTTNKAPATALSDNGLINFMGLMERAVLSKEGQPRASVGRLDQDVMNLVTMLFEFILDDRQLPAAIRAVIARLQIPILKVALLDRTFFNQGGHSARRLLNEMATASIGWTEKAPGEPDAFLAKLEEVVQRLVTEFDNDITIFDEVLEDFIRFRESDKKRRHLLEQRTRDAEVGRAKSDAAKKVVQDVLNDMLAGKNIPALVMEVLKEGWSNYMVLLQLKSGREHPDWLQAQSVAARLIQGCDPDDTSGEAPEVAAVEKLMEELRVGLQQTAYKPFELDKTLRQLQKVLSETTQQRLAKEVTLDDEGHHHHHH	soluble
MAIDLAEVTGAKAAQERKKEQPTIANGLDKNAFMKLFLEQLKNQDPTAPMETDKIITQTAQLTQVEMQEENKKTMQEVASAMKSNKETNESLKDFQGALKDTMENLNKGMDDSLKANNALREVTALNSVSMIGKIAETDVSGANFDGNNKLSFSLFFDEKIDASKGVPAIQILNENNELVKTIPLKDYNGQKGYINFEWDGTNEKGEKVPKGNYKIKAEYNLDSHSKQYLQTRIGRGEVESVIFDKGKPMLRMGEMVLPIDSAIEFYQPDQKPLEQKLSDQKPIDQKPLDQKPQTPPKETA	not soluble
LPPGWQSYLSPQGRRYYVNTTTNETTWERPSSS	soluble
MGSDKIHHHHHHMLPLSAEEFARLVPILRQAGLSHVTHIHELAGGLSNHNYHIQTPTTQYALRLNAEAADRFCSREQELFYWRNLAKAKLAPELIWTSCDHRYYLSAFIESQDIASLLNASQIPDMLGDWADVRGALNWKNLAYQCSAAEFTLGEQRLQTWLQAHAENFECALHQACMPQSFAAQLTPLALLESQCPNRVHSLLLQLLQRLRLQSAGPYHISVTEQWQQYHQQLLAFAATDKGSAWQTRLDLLLGLQPQIHRWTTVLADCLVAAQFCHRDLNPHNLLLKDNQLYCIDFEYATASHPLCELAVVLATHRLTPVQRHILVRQYLADHPGVTSTAITAVPAAIDMYWVFALYWALLIAAQTDAERQQEYLAWFDSFWSLVSQDA	not soluble
MGSSHHHHHHSSGRENLYFQGPSNSDAAHAFWSTQPVPQTEDEDEKIVFAGPMDEPKTVADIPEEPYPIASTFEWWTPNMEAADDIHAIYELLRDNYVEDDDSMFRFNYSEEFLQWALCPPNYIPDWHVAVRRKADKKLLAFIAGVPVTLRMGTPKYMKVKAQEKGEGEEAAKYDEPRHICEINFLCVHKQLREKRLAPILIKEATRRVNRTNVWQAVYTAGVLLPTPYASGQYFHRSLNPEKLVEIRFSGIPAQYQKFQNPMAMLKRNYQLPSAPKNSGLREMKPSDVPQVRRILMNYLDSFDVGPVFSDAEISHYLLPRDGVVFTYVVENDKKVTDFFSFYRIPSTVIGNSNYNLLNAAYVHYYAATSIPLHQLILDLLIVAHSRGFDVCNMVEILDNRSFVEQLKFGAGDGHLRYYFYNWAYPKIKPSQVALVML	soluble
MIINIRKFREHDLKRVMEIEKESFDKNYPEFLMMHIYTSFPDGFLVAETEDGKIVGYIIALMEWGNGHVVSIAVDSAYQNYGIGNALLSATENFLFNECHAKHCVLEVRFDNKKAREFYYKRNYVDRKVLYNYYDDGADAILMIKRRFDLSGNYPIFVNMW	not soluble
MAFQQPNLQQIFSSVDKDRSGQISSDELQTALSNGTWNPFNPETCRLMIGMFDSNGDGAINFQEFQALWRYINDWTNCFRGFDTDGSGNIDKSELTNALTQFGYRLSPQFYNILMHKFDRSHSNRINFDDFIQLCVVLQTLTAAFRLEIRAKIDLEI	not soluble
MIKRNLLVMGLAVLLSACGFQLRGTGTTELAIKELDVSARNAYGETVTQLTRLLTSSGVKVYTGAPYKLILTSENETQRTISFSGSGRSAEYQLTNTLTYEIHGDRDRLLLDNKVSADRSYVHDGNNLTGSDQEASQVRQEMRNDLIQKLMARLQQLTPSRLDELQAKADAVAKAEADALEAAQRIRDETPQQSPVEVPARLEHHHHHH	not soluble
MAKKLSSPKEYKEFIDKFDVFLFDCDGVLWSGSKPIPGVTDTMKLLRSLGKQIIFVSNNSTKSRETYMNKINEHGIAAKLEEIYPSAYSSATYVKKVLKLPADKKVFVLGEAGIEDELDRVGVAHIGGTDPSLRRALASEDVEKIGPDPSVGAVLCGMDMHVTYLKYCMAFQYLQDPNCAFLLTNQDSTFPTNGKFLPGSGAISYPLIFSTGRQPKILGKPYDEMMEAIIANVNFDRKKACFVGDRLNTDIQFAKNSNLGGSLLVLTGVSKEEEILEKDAPVVPDYYVESLAKLAETA	soluble
MKLFQPSEIVTSLPTQFFASLVAKVNKVVAAGHDVINLGQGNPDQPTPQHIVKALQDAAEKTIHHKYPPFRGHESLKEAVATFYQREYDVVVNPKTEVAILFGGKAGLVELPVCFTNPGDTILVPDPGYPDYLSGVALAKAQFETMPLIAENNFLPDYTKIDDSIAERAKLMFLNYPNNPTGATASKDFFDETIHFANKHNILVVHDFAYGAIGFDGQKPVSFLQADGAKDTGIEIYTLSKTFNMAGWRIAFAVGNESVIETINLLQDHMYVSIFGAIQDAAREALLSSQSCVIDLVNSYESRRNALISACHSIGWNVDIPTGSFFAWLPVPEGYTSEQFSDILLEKAHVAVAPGVGFGEHGEGYVRVGLLHTEDRLREAINRIDKLNFFKK	not soluble
MILLSVHDSFLLDHNLPSACDKVFERLLDVTNSSFGFIATLQEDEDGQSLYLPAISNLAWDEETLTWYRHQRRTHGGLRLRKLDNLFGHVVTHNTVVCTNSLLRQKAGRDLPPIHPALHSLLGIPITHNGKTVGMIALANRREGYDQTMIELEHHHHHH	not soluble
MDQVVVFQKMFEQVRKEQNFSWFYSELKHHRIAHYIYYLATDNIRIITHDDTVLLLRGTRNLLKVSTTKNPAKIKEAALLHICGKSTFREYCSTLAGAGVFRWVTDVNHNKRSYYAIDNTLLYIEDVENNKPLILEHHHHHH	soluble
MAHHHHHHMSLPRRMCMFATCQSNRKSCSMRQSSVTSEGYRYSSTFAAGRLFDAVYVINLDRRPDRWEFATQQLSRAGFLHEEYVRFPAVDGRNVDLQKAHACGLISRLGLLRLQEPEHRRIWGMDLNPGAVGCALSHALLWAQIAASRHRSVLVVEDDSLFPQDFHHKYEARAKQVPSDWELLYVSGLDTAGQAPQLRVAEGVCRVPQMHRTTNCYVVSHRGARLLLDACFPVTYQLDTMMTLRTAGDGAGGVPYVTVPNCYTLQPPLVVQATRMGSDIQSASGGVCDRDEVEEERARCRAAGWEVQETGTLVP	not soluble
MGSDKIHHHHHHMREDFLSREEVDALLRGVSSGSTTSEQSTANPGFRPYNLATQERIVRGRMPTLEIINERFARLLRLGLFNFMRRSANVTAGPVRVMKFSEFVRNLAAPSNLNLVHIKPLRGTSLFVFDPTLVFLVVDNLFGGDGRFLPKTEGRDFTQTEQRIIQRLLNLVFDSYGKSWHPVYPIEFEYLRAETNTQFANVATPNEVVVATTFEVNFGSVVGEMHICMPYSILEPIRDLLSSTLQGEALEVDKRWVGRLSKQVQSAEVTLLANLTHAQVRLDQILNMKVGDVIPLDIPEFVTASVDGVPVMECKYGISNGRYALRMEKMLASGNSNE	not soluble
MGHHHHHHSHMLPPPQPGAAGGSGQPRKCSSRRNAWGNLSYADLITRAIESSPDKRLTLSQIYEWMVRCVPYFKDKGDSNSSAGWKNSIRHNLSLHSRFMRVQNEGTGKSSWWIINPDGGKSGKAPRRRAVSMDNSNKYTKSRGRAAKKKA	soluble
MNRGSLYITATPIGNREDITLRAIDTLRSVDLIAAEDTRHSKKLLEHYGIKTPLLSLHEHNEAARATLLCEKLKQGLNVALISDAGTPLISDPGYRLVNAVREAGIEVVPIPGACAAIAALVASGLPTDRFIFEGFIPSKGEVRRKKLEDLKNQRRTIIFYESVHRIVNLIDLLNEIFGTERRATIARELTKKFETIHTATLAELKNWINENPVQEKGEFVVIVAGQTEKLTEINEEHQQLLTLLLSELSLKQAVSLATKISGLPRKKLYALALTIQQHLPHHRY	soluble
MKIALINENSQASKNHIIYDSLKEATDKKGYQLFNYGMRGEEGESQLTYVQNGLMAAILLNTKAVDFVVTGCGTGVGAMLALNSFPGVVCGLAVDPTDAYLYSQINGGNALSIPYAKGFGWGAELTLKLMFERLFAEEMGGGYPRERVIPEQRNARILNEVKQITHNDLMTILKIIDQDFLKDTISGKYFQEYFFENCQDDEVAAYLKEVLAK	soluble
MSLSSVKDFPKIKAIRSFIIGGVGSGGDYHNVKGGHWLIDSDISTPASKWEQYKKSRTSWGINVLGSFLVEIEATDGTVGFATGFGGPPACWLVHQHFERFLIGADPRNTNLLFEQMYRASMFYGRKGLPIAVISVIDLALWDLLGKVRNEPVYRLIGGATKERLDFYCTGPEPTAAKAMGFWGGKVPLPFCPDDGHEGLRKNVEFLRKHREAVGPDFPIMVDCYMSLNVSYTIELVKACLDLNINWWEECLSPDDTDGFALIKRAHPTVKFTTGEHEYSRYGFRKLVEGRNLDIIQPDVMWLGGLTELLKVAALAAAYDVPVVPHASGPYSYHFQISQPNTPFQEYLANSPDGKSVLPVFGDLFIDEPIPTKGYLTTADLDKPGFGLTINPAARAKLIPSDYLFKVPEIPQNLSTGKEIKSNEQPDKPNGTLDSLAAKVESLTTSTSSEGHHHHHH	soluble
MGSDKIHHHHHHMNGKAVQLKEEADEPGWEVDPDDEWGVAVVETVGRQLKLRREALGMRAADFGTAVGYGEDMVYKIESGKRIPRPEFLDRADELLGAGGLLSAMKEDVKKVRYPKNVREIAKLEAQAVELGVYVGLSLHGLLQTPEHARALFEVWQPAYSPEEAERRMAARMARKAIFERSPAPALSFVQEEATLRRPVGGTMVWRQQLEHLLEVGQLRNVTLQVMPTNSEAHPGLSGRIEVLKFSDGTAVGRSDGAYNGRPISDPKQLRILELRYGTIRAQALPPRESLAFIEQLLGET	not soluble
MAMNLRKNQAPLYIKVHEIDNTAIIVNDGGLPKGTVFSCGLVLEEDVPQGHKVALTDLNQGDEIVRYGEVIGFADETIKRGSWIREALVRMPAP	not soluble
ALVELKVPDIGGHENVDIIAVEVNVGDTIAVDDTLITLETDKATMDVPAEVAGVVKEVKVKVGDKISEGGLIVVVEAEGTA	soluble
SNAMQNRWAETKFDSDIDEVVYGSRLIGSDPDLVLHGGGNTSVKTTERDHAGRIISVLRVKNSGSNLGTIDSRGFTGIRMDDALAAAKIDKMTDEAMVDYLKKSMVNPSEPSPSVETFLHAFLPYKFVMHSHADAILSITNTDLPSDQIAKILGNVVVLPYIPPGFTLAKEVMNCFKKGIDGIVLRKHGLLTFGDTGKEAYDRHINIVSRAENFIREKTDGK	soluble
